Key:
[1] = Rat pharmacokinetic comparability with/without C-terminal lysine; format: in vivo, Sprague-Dawley rats; conditions: in vivo, 1 mg/kg
Method: 1 mg/kg of total GLP-2 peptibody K protein was administered subcutaneously to one group of six male Sprague-Dawley rats. 1 mg/kg of total GLP-2 peptibody K274 protein was administered intravenously to another group of six male Sprague-Dawley rats. 1 mg/kg of total GLP-2 peptibody B protein was administered subcutaneously to a third group of five male Sprague-Dawley rats. 1 mg/kg of total GLP-2 peptibody B264 protein was administered subcutaneously to a fourth group of five male Sprague-Dawley rats.
For all of the above groups, plasma samples were taken pre-dose, and at the following time points post-dose: 5 minutes (day 1), 10 minutes (day 1), 20 minutes (day 1), 30 minutes (day 1), 1 hour (day 1), 2 hours (day 1), 6 hours (day 1), 24 hours (day 2), 48 hours (day 3), 72 hours (day 4), 120 hours (day 6), 168 hours (day 8), 240 hours (day 11), and 336 hours (day 15).
Tables showing the pharmacokinetic data comparing intravenously administered GLP-2 peptibody K and GLP-2 peptibody K274 are in FIG. 10B. Tables showing the pharmacokinetic data comparing subcutaneously administered GLP-2 peptibody K and GL-2 peptibody K274 are in FIG. 10C.

[2] = target: T1, hFcRn (extracellular domain of the FcRN) (Homo sapiens, UniProt P55899); test: FcRn binding by surface plasmon resonance (Biacore)
T1 construct: made in house
Description: Binding to the Fc neonatal receptor (FcRN) allows for recycling of the molecules and leads to an extended in vivo serum half-life of the Fc fusion proteins. Recycling occurs as the molecules are passively taken into the cells and the pH of the endosomes is lower. That leads to binding of the Fc portion of the molecule to the FcRN. When the FcRN recycles back to the surface of the cell, the pH is then neutral and the protein is released back into the serum.
Binding to the extracellular domain of the FcRN was measured by surface plasmon resonance (SPR) using a Biacore system. Direct immobilization with FcRn was achieved via amine coupling of a CM5 chip with FcRn under the following conditions: • i) hFcRn (expressed and purified in house) is diluted in Acetate buffer pH 5.0 to 5 μg/mL. • ii) Immobilize 5 μg/mL of FcRn with target of 500 RU on CM5 chip in PBS pH 7.0 • iii) Final response 454 RU • iv) Running buffer: PBS-P+, pHed to 5.5
The kinetic binding study was done using the following protocol. Samples were diluted in PBS-P+ to 50, 25, 12.5, 6.25, 3.125, 1.56, 0.78, 0.39, 0 nM. The parameters were set as follows: • i) Association and Dissociation 300 s at Flow rate 30 μL/min • ii) Regeneration with 25 mM Tris, 150 mM NaCl pH 8.0 40 s at 60 μL/min
A measurement of the binding of the GLP-2 peptibodies to the Fc neonatal receptor (FcRN) was undertaken at pH 5.5 and pH 7.4.

[3] = Cynomolgus monkey pharmacokinetic study; format: in vivo, cynomolgus monkeys; conditions: 0.75 mg/kg
Method: Pharmacokinetics studies of teduglutide, GLP-2 Peptibody B and GLP-2 Peptibody K were formed in cynomolgus monkeys with citrulline assayed as a biomarker of GLP-2 concentration. In the study, 12.5 nmol/kg teduglutide was administered subcutaneously to a group of 6 male cynomolgus monkeys at day 1. Then for one set of 2 monkeys, 25 nmol/kg GLP-2 Peptibody B was administered intravenously at day 7, day 21, day 28, day 35, and day 42. For another set of 3 monkeys, 25 nmol/kg GLP-2 Peptibody B was administered subcutaneously at day 7, day 21, day 28, day 35, and day 42. For another set of monkeys, 5 nmol/kg GLP-2 Peptibody K was administered intravenously (2 monkeys) and subcutaneously (3 monkeys) at day 7, day 21, day 28, day 35, and day 42. For another set of monkeys, 25 nmol/kg GLP-2 Peptibody K was administered subcutaneously (3 monkeys) and intravenously (2 monkeys) at day 7, day 21, day 28, day 35, and day 42.

[4] = SEC-MALS (Sepax Zenix C-150) peak distribution; format: physicochemical
Method: A SEC-MALS assay was performed to determine the primary state (main peak) and its molecular weight. […] The GLP-2 peptibody O (albumin fusion) eluted at a molecular weight indicative of a monomer.
(§1) Stability analysis was then performed using SEC-MALS and NanoDSF. For SEC-MALS, a Sepax Zenix C-150 column was used. The mobile phase buffer was 1× PBS with a final concentration of 400 mM NaCl. The flow rate was 0.8 mL per minute. 20 micrograms of total protein was injected. For NanoDSF, 10 microliters of sample was used, without normalization of the samples.
as §1

T1 sequence (P55899 24-297 limits assumed): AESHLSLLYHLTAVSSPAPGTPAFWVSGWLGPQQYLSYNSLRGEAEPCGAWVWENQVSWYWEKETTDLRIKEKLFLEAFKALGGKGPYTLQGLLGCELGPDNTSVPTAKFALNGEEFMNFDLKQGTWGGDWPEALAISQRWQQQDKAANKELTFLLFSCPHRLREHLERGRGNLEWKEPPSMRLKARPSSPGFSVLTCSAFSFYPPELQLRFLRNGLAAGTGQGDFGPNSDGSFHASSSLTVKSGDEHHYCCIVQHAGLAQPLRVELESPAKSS
T1 sequence (P61769 21-119 partner): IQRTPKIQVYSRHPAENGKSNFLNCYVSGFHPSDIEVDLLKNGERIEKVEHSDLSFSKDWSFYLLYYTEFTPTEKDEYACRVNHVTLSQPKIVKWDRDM

Substance: GLP-2 peptibody K: GLP-2[A2G]-GGGGSGGGGSGGGGS linker-IgG1 Fc (LALA) with C-terminal lysine; SEQ ID NO: 10
- pharmacokinetic comparability of K and K274 [1]: identical from a pharmacokinetic point of view
- Kd ([2]; pH 5.5): 1.95 nM
- FcRN KD at pH 7.4 ([2]; pH 7.4): No binding in range tested.
- CL ([3]; MDPK, intravenous): 0.804 mL/h/kg
- Q ([3]; MDPK, intravenous): 1.12 mL/h/kg
- Vc ([3]; MDPK, intravenous): 0.0365 L/kg
- Vt ([3]; MDPK, intravenous): 0.0339 L/kg
- CL/F ([3]; MDPK, subcutaneous): 1.35 mL/h/kg
- Vc ([3]; MDPK, subcutaneous): 0.111 L/kg
- association constant (ka) ([3]; MDPK, subcutaneous): 1.70 day⁻¹
- CL ([3]; SDPK, intravenous): 0.717 mL/h/kg
- Q ([3]; SDPK, intravenous): 1.21 mL/h/kg
- Vc ([3]; SDPK, intravenous): 0.0323 L/kg
- Vt ([3]; SDPK, intravenous): 0.0329 L/kg
- CL/F ([3]; SDPK, subcutaneous): 1.37 mL/h/kg
- Vc ([3]; SDPK, subcutaneous): 0.107 L/kg
- association constant (ka) ([3]; SDPK, subcutaneous): 1.56 day⁻¹
- SEC-MALS Zenix C-150 main peak [4]: 80.2% main peak, 149,900 g/mol

From patent US20230031280A1, “GLP-2 FUSION POLYPEPTIDES AND USES FOR TREATING AND PREVENTING GASTROINTESTINAL CONDITIONS” (SHIRE-NPS PHARMACEUTICALS, INC., priority 2017, published 2023)
